Literature values as cited in article PMC9445421.
Where two headings read alike, the source gives them in different places.

What was measured:
TrkB (Homo sapiens) [1] = biological target: TrkB (Homo sapiens) (UniProt Q16620)
TrkB (Homo sapiens) [2] = biological target: TrkB (Homo sapiens) (UniProt Q16620); remark: listed apart in the source

Chain of UniProt Q16620 (Q16620 32-430): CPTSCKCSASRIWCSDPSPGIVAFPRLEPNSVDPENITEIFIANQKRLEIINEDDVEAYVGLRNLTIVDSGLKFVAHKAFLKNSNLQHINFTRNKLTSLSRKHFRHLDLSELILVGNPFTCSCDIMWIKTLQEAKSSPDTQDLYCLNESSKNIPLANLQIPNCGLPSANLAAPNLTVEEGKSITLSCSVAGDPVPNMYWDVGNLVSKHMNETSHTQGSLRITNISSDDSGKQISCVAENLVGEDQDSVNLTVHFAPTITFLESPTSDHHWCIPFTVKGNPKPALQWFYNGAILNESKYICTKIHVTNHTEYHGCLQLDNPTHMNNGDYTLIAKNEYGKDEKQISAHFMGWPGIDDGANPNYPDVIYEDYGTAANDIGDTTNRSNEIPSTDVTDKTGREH

In the case of BDNF (from UniProt P23560), the Kd (TrkB (Homo sapiens) [1]) is listed as 0.79 nM.

In the case of NT4 (from UniProt P34130), the Kd (TrkB (Homo sapiens) [2]) is listed as 0.26 nM.
